# ± gives the standard error. Fewer inactive variants are shown than the library holds.
# B1: glmS ribozyme (parent)
# chain: AUAAAAGCGCCAGAACUACAGAAAUGUAGUUGACGAGGAGGAGGUUUAUCGAAUUUUCGGCGGAUGCCUCCAAA
# Variants of: B1
# Test: self-cleavage kobs at 10000 uM GlcN6P; higher = faster cleavage; RNA array
# Settings: with glucosamine-6-phosphate
# In short: (§1)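 Barcoded ribozyme variants were transcribed in situ on sequenced MiSeq chips by E. coli RNA polymerase. At 37 °C, a hybridised Cy3 probe tracked them while glucosamine-6-phosphate (40 μM to 10 mM) in HEPES/KCl/Mg(OAc)2 buffer flowed in and tiles were imaged over ~14 h. Per-tile medians of signals normalised to baseline and to non-cleaving reference variants were fit to one- or two-exponential decays, giving kobs. kcat and KM came from weighted Michaelis–Menten fits across concentrations.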
row,Variant,self-cleavage kobs at 10000 uM GlcN6P [s⁻¹]
1,U49C C68A,< 1e-05
2,U30C G41A U54C,< 1e-05
3,U30C U31G C70G,0.000168 ± 4.5e-05
4,G7U G13U G63U,< 1e-05
5,A33C G38U G41U G43A U56A,< 1e-05
6,U30G A48C,5.11e-05 ± 1.6e-05
7,A42C C61U C68U,< 1e-05
8,C50A G62C,< 1e-05
9,U31C G40C U54C U56A A64U,< 1e-05
10,C16G G29A G32A,0.00144 ± 0.00032
11,C16A G29C A39C,0.000349 ± 6.1e-05
12,C10A C58G G60A U69G,5.7e-05 ± 1.6e-05
13,C34U G37U U46C U47A G62A,< 1e-05
14,A39G C58G C67U,3.44e-05 ± 1.2e-05
15,G32U C34A G37U,< 1e-05
16,C34U G40U A42U,< 1e-05
17,G35A G37C U47C,< 1e-05
18,C10A G32A G60C G63A,< 1e-05
19,G29A G43U G51A,< 1e-05
20,C34U C58U,< 1e-05
21,A6G C34A A39G,< 1e-05
22,C10G C71A,< 1e-05
23,A14G G32A A52G,0.000409 ± 0.00011
24,U17A A18C C19A A20G A52G U57G C67A,8.22e-05 ± 1.7e-05
25,C16U U30G G59C,< 1e-05
26,A15G G43A C58A,< 1e-05

row,Variant,self-cleavage kobs at 10000 uM GlcN6P [s⁻¹]
1,A42G G59U,4.33e-05 ± 9.8e-06
2,A20U G32C,7.58e-05 ± 2.1e-05
3,A12G U56G C70G,7.52e-05 ± 2e-05
4,A6C U49A,< 1e-05
5,G29A U31C U54G,0.000213 ± 6.7e-05
6,A12U G40A A53C,0.00159 ± 0.00056
7,A42G C58U,9.52e-05 ± 1.4e-05
8,G37A C50G,< 1e-05
9,C8G G9C G13U G37U A64G,< 1e-05
10,G40A U69C,5.59e-05 ± 1.9e-05
11,G7C U55G U56C U69A,< 1e-05
12,U31C U47G C70G,4.82e-05 ± 1.5e-05
13,A36C A39U U55A,< 1e-05
14,C11G U31C A36C,< 1e-05
15,C8U G41U A48U C71G,< 1e-05
16,A12G G51C G60U,< 1e-05
17,G35C A39C G41U U49G,< 1e-05
18,U30G G37A A42U,9.36e-05 ± 2.3e-05
19,G7C A14G A39C A48G A53U,< 1e-05
20,A14U A42G C61G,< 1e-05
21,A48U U56A C68U,7.52e-05 ± 1.8e-05
22,A15G U31A A36G C58U,< 1e-05
23,G26U A53C,0.00559 ± 0.0013
24,A15G C67A C68A,5.65e-05 ± 1.7e-05
25,A36U G37C C50U U57A U69G,4.81e-05 ± 2.3e-05
26,G29C A52U A53C C68G,< 1e-05

row,Variant,self-cleavage kobs at 10000 uM GlcN6P [s⁻¹]
1,U57C G62U,< 1e-05
2,C11A U30C A39G,0.000114 ± 2.3e-05
3,A15U C50U C58G,< 1e-05
4,G7C A39C C61A C67A,< 1e-05
5,G40A C58U C67G C71G,< 1e-05
6,G29C G40A A42G,8.98e-05 ± 2.9e-05
7,C10U U49G C61U,< 1e-05
8,G40A G51C C67U,< 1e-05
9,C8G U45G U55C C71A,< 1e-05
10,A6C G29A C34U G43U G44U,< 1e-05
11,G13A U57G,4.69e-05 ± 8.8e-06
12,G32A U57C G62A C67G,< 1e-05
13,A15U G44U C61A,< 1e-05
14,A14U A42G C58A,0.000409 ± 0.00014
15,G26U U30G C71U,0.000403 ± 6.4e-05
16,C11G U30A U57G,< 1e-05
17,A39C G44C G60U,< 1e-05
18,G9C G43C C67U,< 1e-05
19,A33C G59C A64G G66A C70A,< 1e-05
20,G13U C58U,6.77e-05 ± 6.2e-06
21,G9A C11U U30C A52U G62U,< 1e-05
22,G13C A14G U69G,3.8e-05 ± 1.6e-05
23,A48C C61G C70G,< 1e-05
24,A6G U31C C34G,< 1e-05
25,G29A G66U C68U,3.63e-05 ± 1.6e-05
26,U55G C68A C71U,2.99e-05 ± 1.4e-05

row,Variant,self-cleavage kobs at 10000 uM GlcN6P [s⁻¹]
1,U54G C58A C71U,0.000213 ± 4.7e-05
2,C10G G13A G41C C50U C67A,< 1e-05
3,A36U G43U G63C,< 1e-05
4,A33C G37U,< 1e-05
5,A33C G62C C70U,< 1e-05
6,C11G A39U G44U A48C,< 1e-05
7,A33G C58U C67U,< 1e-05
8,A12G G51U C58G,< 1e-05
9,C8G G32U G43A C68G,< 1e-05
10,G13A U57G C70U,3.53e-05 ± 1.7e-05
11,A33G C34U C50G C67U,0.000194 ± 3.6e-05
12,A39U C67G C71A,7.84e-05 ± 1.5e-05
13,A12G G13U U56G C61U C68G C70A,4.15e-05 ± 1.7e-05
14,C8U C34A A53C C71A,< 1e-05
15,C16U G32A C58A U69A,7.78e-05 ± 1.2e-05
16,C8A A39G G41U G66U C67G,< 1e-05
17,G7A G9A A53G G60A U65A C67A,0.000102 ± 2.7e-05
18,A15G C16U G29C,0.00377 ± 0.00075
19,A39C G51C G59C,< 1e-05
20,C16U G26U U31C,5.34e-05 ± 1.7e-05
21,A15G G60A,3.03e-05 ± 1.1e-05
22,A12U A15G U46G,0.00932 ± 0.0019
23,G9C C34A U55C,< 1e-05
24,A12C G13U C61U G62U,< 1e-05
25,G13U C61G C68G,< 1e-05
26,C11A U30G C67A,9.25e-05 ± 1.7e-05

row,Variant,self-cleavage kobs at 10000 uM GlcN6P [s⁻¹]
1,G7A C10G C19A U47A G51A,< 1e-05
2,G41U A53G C68U,4.96e-05 ± 1.3e-05
3,A39G A52C,2.99e-05 ± 1.2e-05
4,G29U G32A A39U,0.00055 ± 8.7e-05
5,G26U U57G,5.83e-05 ± 2e-05
6,A14C G37A U45A U49A C50A C58U,< 1e-05
7,A64C U65G,4.42e-05 ± 1.1e-05
8,G13A C58U,8.94e-05 ± 8.9e-06
9,A12C A15U G40U,0.00018 ± 4e-05
10,G7U C34G G59C,< 1e-05
11,G37U C58G G63U,< 1e-05
12,A33C G51A A64U,< 1e-05
13,G29U U31G G32C C67A C68G,5.79e-05 ± 2.8e-05
14,G9U A15U A42C U57G,< 1e-05
15,A42U U56C C71U,5.21e-05 ± 2e-05
16,A39G U56G C68U,0.00322 ± 0.0012
17,G35U G40C A53U U54A,< 1e-05
18,C16U G40U G66U,4.28e-05 ± 1.2e-05
19,U56C U57G G59U,< 1e-05
20,A14U U31C U46C,0.00011 ± 1.7e-05
21,G29U C34A G59A U65C,< 1e-05
22,A12C A33G,< 1e-05
23,G40A A53G C71G,0.00453 ± 0.001
24,C11A A12C U57G C67G,3.81e-05 ± 1.5e-05
25,A12U G13U U31C G40A G44A U56A,< 1e-05
26,C8G G40C G59C C67G C71U,< 1e-05

# Variants of: B1
# Test: self-cleavage kobs at 2500 uM GlcN6P; higher = faster cleavage; RNA array
# Settings: with glucosamine-6-phosphate
# In short: as §1
row,Variant,self-cleavage kobs at 2500 uM GlcN6P [s⁻¹]
1,C34G C58A C71U,< 1e-05
2,G7C G21U C67G,< 1e-05
3,G43A G44A U47A G59C,< 1e-05
4,A12G U45G U54G,0.000192 ± 5.5e-05
5,G43A U54A,3.85e-05 ± 1.7e-05
6,C11G U30C G40C,< 1e-05
7,A12G U56G C70G,0.000113 ± 3e-05
8,A12U G40A A53C,0.00179 ± 0.00063
9,C8U A42G G43U U49G,< 1e-05
10,U30C U31C A53U U55A,0.00034 ± 7.2e-05
11,A15U U56C C68A C71G,< 1e-05
12,G41U U47C G51U,< 1e-05
13,G38U U54G C71A,< 1e-05
14,U30G G37A A42U,6.68e-05 ± 1.2e-05
15,G37U G44U G59A C70U,< 1e-05
16,C34A A39C G66C C71A,< 1e-05
17,A6C G29A G37U,< 1e-05
18,G40U U49A G62C C68U,< 1e-05
19,C19A U31C U45G,0.000156 ± 4.3e-05
20,U31A A39G C67U,0.00111 ± 0.0004

row,Variant,self-cleavage kobs at 2500 uM GlcN6P [s⁻¹]
1,C10G G35U U46G C68A,< 1e-05
2,U30A U56A G60U,< 1e-05
3,G41U A53U U56G,0.00031 ± 9.3e-05
4,A12G A53G G63C,< 1e-05
5,G7U U47G A52U,< 1e-05
6,A33C G59C A64G G66A C70A,< 1e-05
7,G26U A33C C34A U47G,< 1e-05
8,G9C A15C A33C U46A U65G,< 1e-05
9,G63C A64C C67A,< 1e-05
10,G43A C50G U69G,< 1e-05
11,C8G A33G A52G A53G C68A U69G,0.000457 ± 0.00011
12,C16G A48C G60U A64U,< 1e-05
13,G9U G32A A33C,< 1e-05
14,A12U G51A G60U,< 1e-05
15,U56A U57C C67A,4.71e-05 ± 2e-05
16,G37A A53U U55G,0.000444 ± 9.3e-05
17,C8G A64G U69A C71U,< 1e-05
18,A12C A33G,< 1e-05
19,U45G U56A C71U,0.000974 ± 0.00025

# — the supplement of paper PMC7125110
